According to PMC4692269:
Changes are numbered by the printed parent chain.

Key:
[1] = target: BG505 SOSIP.664 trimer, wild type, produced in 293S cells (HIV-1 (clade A strain BG505)) (UniProt Q2N0S6); assay: ITC
[2] = target: BG505 SOSIP.664-N137A trimer, produced in 293S cells (HIV-1 (clade A strain BG505)); assay: ITC

PGT124 (mature bnAb of the PGT121 family) (Fab)
Kd [1]: 32 nM
fold higher affinity against 32H+3L on the same trimer [1]: 13 fold

B1: PGT124 (mature bnAb of the PGT121 family) (Fab, V domains shown)
VH: QVQLQESGPGLVRPSETLSVTCIVSGGSISNYYWTWIRQSPGKGLEWIGYISDRETTTYNPSLNSRAVISRDTSKNQLSLQLRSVTTADTAIYFCATARRGQRIYGVVSFGEFFYYYYMDVWGKGTAVTVSS
VL: SYVSPLSVALGETARISCGRQALGSRAVQWYQHKPGQAPILLIYNNQDRPSGIPERFSGTPDINFGTTATLTISGVEVGDEADYYCHMWDSRSGFSWSFGGATRLTVL
fold enhanced affinity against its binding to the wild-type trimer [2]: 5 fold

B2: 32H+3L Fab (inferred intermediate of the PGT124 branch) (Fab, V domains shown)
VH: B1 VH with R13K, N64K, A67V, Q81K, R83N, T87A, F94Y
VL: SYVLTQPSQLSVAPGETARISCGGRSLGSRAVQWYQQKPGQAPVLVIYNNQDRPSGIPERFSGSPDSNFGTTATLTISRVEAGDEADYYCHMWDSRSAINWVFGGGTKLTVL
fold enhanced affinity against its binding to the wild-type trimer [2]: 16 fold

B3: 9H+3L Fab (inferred intermediate of the PGT122 branch) (Fab, V domains shown)
VH: QVQLQESGPGLVKPSETLSLTCSVSGASISDHYWSWIRQSPGKGLEWIGYVYDSGDTNYNPSLKSRVNLSLDTSKNQVSLSLTAVTAADSAIYYCARTQHGRRIYGIVAFREWFTYFYMDVWGQGTPVTVSS
VL: B2 VL
fold enhanced affinity against its binding to the wild-type trimer [2]: 11 fold

B4: 3H+3L Fab (inferred early precursor of the PGT121 family) (Fab, V domains shown)
VH: QVQLQESGPGLVKPSETLSLTCTVSGGSISNYYWSWIRQSPGKGLEWIGYISDSESTNYNPSLKSRVIISVDTSKNQLSLKLNSVTAADSAIYYCARAQQGKRIYGMVSFGEFFYYYYMDVWGKGTTVTVSS
VL: B2 VL
Kd [2]: 35 nM
fold enhanced affinity against its binding to the wild-type trimer [2]: 15 fold
